Reference: patent US20190233522A1, “NEW DOSAGE REGIMENS FOR ANTIBODY DRUG CONJUGATES BASED ON ANTI-AXL ANTIBODIES” (GENMAB A/S, priority 2016, published 2019)

What was measured:
LCLC-103H cells = assay: Cytotoxicity assay (CellTiter-Glo) in LCLC-103H cells; assay type: cell-based, human; conditions: 5 days incubation
Experimental: (§1) LCLC-103H cells (human large cell lung cancer) and A431 cells (DMSZ, Braunschweig, Germany) were cultured in RPMI 1640 with L-Glutamine (Cambrex; cat.no. BE12-115F) supplemented with 10% (vol/vol) heat inactivated Cosmic Calf Serum (Perbio; cat.no. SH30087.03), 2 mM L-glutamine (Cambrex; cat.no. US17-905C), 50 IU/mL penicillin, and 50 µg/mL streptomycin (Cambrex; cat.no. DE17-603E). MDA-MB231 cells were cultured in DMEM with high glucose and HEPES (Lonza #BE12-709F), Donor Bovine Serum with Iron (Life Technologies #10371-029), 2 mM L-glutamine (Lonza #BE17 -605E), 1 mM Sodium Pyruvate (Lonza #BE13-115E), and MEM Non-Essential Amino Acids Solution (Life Technologies #11140). The cell lines were maintained at 37° C. in a 5% (vol/vol) CO2 humidified incubator. LCLC-103H, A431 and MDA-MB231 cells were cultured to near confluency, after which cells were trypsinized, resuspended in culture medium and passed through a cell strainer (BD Falcon, cat.no. 352340) to obtain a single cell suspension. […]
(§2) Subsequently, 180 μL per well was transferred to white 96-well Optiplate™ plates (PerkinElmer, Waltham, Mass.; cat.no. 6005299), which were incubated for 30 min at room temperature. Finally, luminescence was measured on an EnVision multiplate reader (Envision, Perkin Elmer).

A431 cells = assay: Cytotoxicity assay (CellTiter-Glo) in A431 cells; assay type: cell-based; conditions: A431 (n = 3), 5 days incubation
Experimental: as §1, §2

MDA-MB231 cells = assay: Cytotoxicity assay (CellTiter-Glo) in MDA-MB231 cells; assay type: cell-based; conditions: MDA-MB231 (n = 2), 5 days incubation
Experimental: as §1, §2

[1] = tested on: LCLC-103H xenograft tumors; assay: Therapeutic treatment of SC LCLC-103H tumor xenografts (Example 3); assay type: in vivo, SCID mice
Experimental: The in vivo efficacy of MMAE-conjugated anti-AXL antibodies was determined in established subcutaneous (SC) LCLC-103H xenograft tumors in SCID mice. 5×10^6 LCLC-103H (large cell lung carcinoma) tumor cells (obtained from Leibniz-Institut DSMZ-Deutsche Sammlung von Mikroorganismen and Zellkulturen GmbH (DSMZ)) in 200 μL PBS were injected subcutaneously in the right flank of female SCID mice. Starting 14-21 days after tumor cell inoculation, when the average tumor size was >100-200 mm^3 and distinct tumor growth was observed, a single injection with 1 mg/kg (20 μg/mouse) IgG1-AXL-vcMMAE antibodies or control (unconjugated IgG1-b12) was given intraperitoneally (100 μL/mouse). Tumor volume was determined at least two times per week. Tumor volumes (mm^3) were calculated from caliper (PLEXX) measurements as: 0.52×(length)×(width)^2.

PAXF1657 tumors = assay: PAXF1657 pancreas cancer PDX model; assay type: in vivo, NMRI nu/nu mice
Experimental: Human pancreas tumor tissue was subcutaneously implanted in the left flank of 5-7 weeks old female NMRI nu/nu mice. […] At day of randomization (day 0), the 3 ADCs were dosed intravenously (i.v.) at either 4 mg/kg or 2 mg/kg, and the control group received a single dose of IgG1-b12 (4 mg/kg). Tumor volumes (mm^3) were monitored twice weekly and were calculated from caliper (PLEXX) measurements as: 0.52×(length)×(width)^2.

A431 tumors = assay: A431 xenograft model (high Gas6); assay type: in vivo; conditions: 3 mg/kg i.p., SCID mice
Experimental: (§3) Tumor induction was performed by subcutaneous injection of 5×10^6 A431 or LCLC-103H tumor cells (both obtained from Leibniz-Institut—Deutsche Sammlung von Mikroorganismen and Zellkulturen GmbH (DSMZ)) in 200 μL PBS in the right flank of female SCID mice. Treatment was started 14-21 days after tumor cell inoculation, when the average tumor size was >100-200 mm^3 and distinct tumor growth was observed. Mice received a single injection or a total of 4 biweekly intraperitoneal injections with IgG1-AXL-vcMMAE ADCs or control antibody (unconjugated IgG1-b12), as indicated. Tumor volume was determined at least two times per week. Tumor volumes (mm^3) were calculated from caliper (PLEXX) measurements as: 0.52×(length)×(width)^2.

LCLC-103H tumors = assay: LCLC-103H xenograft model (low Gas6, Example 5); assay type: in vivo; conditions: 3 mg/kg i.p., SCID mice
Experimental: as §3

AXL = AXL (Homo sapiens, UniProt P30530); assay: Competition with Gas6 for binding to AXL
[2] = Pre-clinical PK studies in cynomolgus monkey; assay type: in vivo
Description: Data from 5 in-vivo pre-clinical studies, shown in the Table below, were provided, containing measurements of the plasma ADC level, plasma IgG level, and plasma MMAE level (only measured in study 5).
All studies appeared to show a significant drop in plasma concentrations of ADC/IgG after the 2nd dose when compared to the first dose, which corresponded with an ADA response. As this is a fully human antibody, ADA response are only very rarely expected to occur in humans. Therefore, only data after the first dose were included in the data preparation and subsequently modelled.

B1: IgG1-AXL-148-vcMMAE: anti-AXL antibody 148 (VH SEQ ID No 5, VL SEQ ID No 6), Ig2 binder, conjugated to vcMMAE (conjugate)
VH: EVQLLESGGGLVQPGGSLRLSCAASGFTFSSYAMTWVRQAPGKGLEWVSAISISGGSTFYADSVKGRFTISRDNSKNTLYLQMNSLRAEDTAVYYCRGYSGYVYDAFDFWGQGTMVTVSS
VL: DIQMTQSPSSLSASVGDRVTITCRASQGISNWLAWYQQKPEKAPKSLIYAASSLQSGVPSRFSGSGSGTDFTLTISSLQPEDFATYYCQQYNSYPLTFGGGTKVEIK
modifications: vc-MMAE conjugate; homo sapiens
- EC50 (LCLC-103H cells): 0.012 µg/mL
- EC50 Mean (A431 cells): 0.070 µg/mL
- EC50 Mean (MDA-MB231 cells): 0.012 µg/mL
- complete tumor reduction ([1]; 1 mg/kg single i.p.): in some mice within these groups to complete tumor reduction
- tumor volume versus control IgG1-b12 ([1]; day 30, One Way ANOVA (Dunnett's), 1 mg/kg single i.p.): highly significant difference
- anti-tumor activity in established SC LCLC-103H tumors ([1]; single i.p. injection 1 mg/kg, SCID mice): induced tumor regression
- growth of PAXF1657 tumors compared to the control group (PAXF1657 tumors; 2 mg/kg i.v., day 0): significantly reduced the growth
- anti-tumor activity on PAXF1657 tumors (PAXF1657 tumors; 4 mg/kg i.v., day 0): induced tumor regression
- average tumor size versus isotype control IgG1-b12 (PAXF1657 tumors; day 14, 2 mg/kg or 4 mg/kg, p<0.001 Tukey's multiple comparison test): significantly smaller
- anti-tumor activity in the PAXF1657 model (PAXF1657 tumors; dose not given): induced dose-dependent antitumor activity
- anti-tumor activity on A431 tumors (A431 tumors): induced growth inhibition
- anti-tumor activity in the LCLC-103H xenograft model (LCLC-103H tumors): induced tumor regression
- competition with Gas6 for binding to AXL (AXL): lack of competition
- pharmacokinetic properties, unconjugated antibody (study 3) versus ADC (study 2) [2]: similar
